Assays:
[1] = molecular target: T1, endogenous TIFA (U937 cells) (Homo sapiens, UniProt Q96CG3 1-184); test: anti-Myc immunoprecipitation from lysates of transduced U937 cells, western blot
T1 construct: Endogenous protein of U937 cells
T1 sequence: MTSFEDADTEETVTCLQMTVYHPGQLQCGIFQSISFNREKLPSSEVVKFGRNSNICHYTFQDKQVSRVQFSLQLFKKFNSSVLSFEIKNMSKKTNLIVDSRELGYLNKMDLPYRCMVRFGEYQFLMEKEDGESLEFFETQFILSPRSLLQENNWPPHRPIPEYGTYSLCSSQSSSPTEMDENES
Description: AML lines were respectively infected with pseudotyped retroviruses carrying these constructs to generate stable cells. […] (FIG. 5C) Lysates from U937 cells stably expressing TIFA fragments shown in (FIG. 5B) were immunoprecipitated using anti-Myc immunobeads and analyzed by western blot.
We designed to fine-map the minimal effective region for molecular targeting of TIFA in AML cells through retroviral transduction (FIG. 5B).

Aurora A = molecular target: T2, Aurora A (UniProt O14965 1-403); test: immunoprecipitation of Aurora A from lysates of 293T cells transfected with HA-tagged TIFA, western blot
T2 construct: In the kinase assay it was present in 293T cell extracts, not purified; also called Aurora A kinase
T2 sequence (looked up): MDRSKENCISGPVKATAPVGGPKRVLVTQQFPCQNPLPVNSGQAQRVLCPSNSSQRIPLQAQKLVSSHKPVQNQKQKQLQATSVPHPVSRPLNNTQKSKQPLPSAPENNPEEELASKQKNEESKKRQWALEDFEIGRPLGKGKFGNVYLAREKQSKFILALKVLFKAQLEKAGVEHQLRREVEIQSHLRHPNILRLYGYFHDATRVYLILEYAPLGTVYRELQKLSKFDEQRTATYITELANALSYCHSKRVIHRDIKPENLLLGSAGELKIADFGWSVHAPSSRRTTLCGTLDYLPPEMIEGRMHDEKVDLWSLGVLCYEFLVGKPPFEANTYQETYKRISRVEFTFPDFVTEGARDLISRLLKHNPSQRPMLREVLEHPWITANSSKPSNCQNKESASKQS
Protocol: After 48 h, cells were treated with or without 10 ng/mL TNF-α (R&D Systems) for 30 min, washed by PBS, and lysed with CHAPS lysis buffer (20 mM PIPES, 1 mM Na₃VO₄, 1 mM EGTA, 50 mM Tris-HCl, 150 mM NaCl, 50 mM NaF, 1% CHAPS, and 10% glycerol) supplemented with protease inhibitor cocktail (Roche), phosphatase inhibitor cocktail 3 (Sigma). Three vig of indicated antibody was pre-coated with 100 μL M-280 Dynabeads (lnvitrogen) overnight at 4° C. The 500 μg cell extracts were incubated with 15 μL antibody-coated Dynabeads at 4° C. overnight. The protein-bead complex was then washed with Tris-buffered saline Tween 20 (TBST) buffer and subjected to Western blot analysis.

B1: TIFA fragment F1F2 with two consecutive Myc-tags (peptide)
chain: MTSFEDADTEETVTCLQMTVYHPGQLQCGIFQSISFNREKLPSSEVVKFGRNSNICHYTFQDKQVSRVQFSLQLFKKFNSSVLSFEIKNMSKKTNLIVDSREL
notes: Stably expressed in U937 cells by retroviral transduction (pLNCX); also called F1-F2 peptide fragment; DN fragment; not shown: two consecutive Myc-tags (2Myc)
binding result [1]: binds

B2: TIFA fragment F2F3 with two consecutive Myc-tags (peptide)
chain: VVKFGRNSNICHYTFQDKQVSRVQFSLQLFKKFNSSVLSFEIKNMSKKTNLIVDSRELGYLNKMDLPYRCMVRFGEYQFLMEKEDGESLEFFETQFILSPRSLLQENNWPPHRPIPEYGTYSLCSSQSSSPTEMDENES
notes: Stably expressed in U937 cells by retroviral transduction (pLNCX); also called F2-F3 peptide fragment; DN fragment; not shown: two consecutive Myc-tags (2Myc)
binding result [1]: binds

B3: HA-tagged TIFA (full-length TIFA wild-type) (other)
chain: MTSFEDADTEETVTCLQMTVYHPGQLQCGIFQSISFNREKLPSSEVVKFGRNSNICHYTFQDKQVSRVQFSLQLFKKFNSSVLSFEIKNMSKKTNLIVDSRELGYLNKMDLPYRCMVRFGEYQFLMEKEDGESLEFFETQFILSPRSLLQENNWPPHRPIPEYGTYSLCSSQSSSPTEMDENES
notes: Expressed in 293T cells from pCDNA3.1. 'full-length TIFA wild-type following a synthesized HA-tag' is read here as an N-terminal tag; also called HA-TIFA; not shown: synthesized HA-tag
binding result (Aurora A): binds

Source: patent publication US20190030120A1 (ACADEMIA SINICA, published 2019)
